± gives the uncertainty stated by the source.
Experiment: self-splicing fitness, log relative to wild type (ln ratio); higher = more splicing; Tetrahymena group I intron in knt gene, E. coli kanamycin selection, DiMSum; sequences stand for … in CUCUCU…GGAGGGAAAAGUUAUCAGGCAUGCACCUGGUAGCUAGUCUUUAAACCAAUAGAUUGCAUCGGUUUAAAAGGCAAGACCGUCAAAUUGCGGGAAAGGGGUCAACAGCCGUUCAGUACCAAGUCUCAGGGGAAACUUUGAGAUGGCCUUGCAAAGGGUAUGGUAAUAAGCUGACGGACAUGGUCCUAACCACGCAGCCAAGUCCUAAGUCAACAGAUCUUCUGUUGAUAUGGAUGCAGUUCACAGACUAAAUGUCGGUCGGGGAAGAUGUAUUCUUCUCAUAAGAUAUAGUCGGACCUCUCCUUAAUGGGAGCUAGCGGAUGAAGUGAUGCAACACUGGAGCCGCUGGGAACUAAUUUGUAUGCGAAAGUAUAUUGAUUAGUUUUGGAGUACUCGUGGUCG
In short: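 A randomised library covering all eight P1ex-region intron nucleotides was built with the intron in the knt kanamycin-resistance gene on pET-22b(+) and held in E. coli BL21(DE3). Cells were grown overnight at 37°C or 30°C on LB agar, with or without 25 μg/mL kanamycin, plus 100 μg/mL carbenicillin, 50 μM IPTG and 0.2% rhamnose, and pooled colonies were amplicon-sequenced on an Illumina HiSeq 2500. DiMSum fitness is the error-weighted combination of wild-type-normalised replicate fold changes, kanamycin versus none.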

Row | Sequence | self-splicing fitness (ln) (30 °C) | self-splicing fitness (ln) (37 °C)
1 | UCACAGCAAUAUUACGGAGG | -3.27 ± 0.15 | -2.29 ± 0.19
2 | UCACAGCAAUAUUACGGCCU | -3.61 ± 0.25 | -1.99 ± 0.15
3 | UCACAGCAAUAUUACGGGCC | -3.95 ± 0.34 | -2.76 ± 0.33
4 | UCACAGCAAUAUUACGGGCU | -4 ± 0.18 | -3.47 ± 0.16
5 | UCACAGCAAUAUUACGGUAG | -1.18 ± 0.085 | -0.311 ± 0.1
6 | UCACAGCAAUAUUACGUACA | -1.53 ± 0.076 | -0.549 ± 0.075
7 | UCACAGCAAUAUUACGUCAG | -1.59 ± 0.077 | -0.829 ± 0.1
8 | UCACAGCAAUAUUACGUUAA | -2.66 ± 0.12 | -1.83 ± 0.11
9 | UCACAGCAAUAUUACGUUUG | -2.21 ± 0.08 | -1.2 ± 0.11
10 | UCAGAGCAAUAUUACGAAAU | -3.56 ± 0.32 | -2.11 ± 0.46
11 | UCAGAGCAAUAUUACGAAGA |  | -2.32 ± 0.42
12 | UCAGAGCAAUAUUACGAAUC | -2.45 ± 0.42 | 
13 | UCAGAGCAAUAUUACGAGAU | -3.74 ± 0.33 | -2.09 ± 0.37
14 | UCAGAGCAAUAUUACGAGCU | -2.68 ± 0.38 | -1.58 ± 0.29
15 | UCAGAGCAAUAUUACGAUUC |  | -1.19 ± 0.41
16 | UCAGAGCAAUAUUACGCACG | -3.39 ± 0.29 | -1.37 ± 0.21
17 | UCAGAGCAAUAUUACGCCAA | -2.84 ± 0.25 | -1.74 ± 0.29
18 | UCAGAGCAAUAUUACGCCUA | -2.28 ± 0.25 | -1.61 ± 0.26
19 | UCAGAGCAAUAUUACGCGAC | -3.71 ± 0.42 | 
20 | UCAGAGCAAUAUUACGCGAG | -2.24 ± 0.12 | -1.06 ± 0.13
21 | UCAGAGCAAUAUUACGCGGC |  | -3.08 ± 0.4
22 | UCAGAGCAAUAUUACGGCAU | -3.07 ± 0.33 | -1.87 ± 0.29
23 | UCAGAGCAAUAUUACGGCGG | -1.41 ± 0.13 | 0.0537 ± 0.13
24 | UCAGAGCAAUAUUACGGCUC | -4.58 ± 0.34 | -3.36 ± 0.25
25 | UCAGAGCAAUAUUACGGCUG | -2.49 ± 0.19 | -0.448 ± 0.2
26 | UCAGAGCAAUAUUACGGUAG | -3.45 ± 0.24 | -2.39 ± 0.27

Row | Sequence | self-splicing fitness (ln) (30 °C) | self-splicing fitness (ln) (37 °C)
27 | UCAGAGCAAUAUUACGGUCA | -1.72 ± 0.18 | -2.42 ± 0.32
28 | UCAGAGCAAUAUUACGUAAA | -2.65 ± 0.15 | -1.95 ± 0.25
29 | UCAGAGCAAUAUUACGUCGC | -3.79 ± 0.37 | -2.41 ± 0.35
30 | UCAGAGCAAUAUUACGUGAG | -0.959 ± 0.054 | -0.838 ± 0.081
31 | UCAGAGCAAUAUUACGUUAC | -3.21 ± 0.37 | -1.55 ± 0.29
32 | UCAGAGCAAUAUUACGUUUA | -3.02 ± 0.25 | -2.6 ± 0.23
33 | UCAGAGCAAUAUUACGUUUG | -4.06 ± 0.24 | -2.36 ± 0.26
34 | UCAUAGCAAUAUUACGAAAC | -2.6 ± 0.25 | 
35 | UCAUAGCAAUAUUACGACCU | -2.73 ± 0.39 | -0.81 ± 0.26
36 | UCAUAGCAAUAUUACGAGGC | -2.86 ± 0.35 | -1.44 ± 0.2
37 | UCAUAGCAAUAUUACGAGUG | -1.8 ± 0.11 | -0.999 ± 0.11
38 | UCAUAGCAAUAUUACGAUAA | -1.71 ± 0.21 | -0.636 ± 0.19
39 | UCAUAGCAAUAUUACGCCUG | -0.427 ± 0.085 | -0.133 ± 0.11
40 | UCAUAGCAAUAUUACGCGGA | -2.71 ± 0.18 | -0.822 ± 0.11
41 | UCAUAGCAAUAUUACGCUCA | -1.82 ± 0.15 | -0.493 ± 0.15
42 | UCAUAGCAAUAUUACGCUGU | -2.91 ± 0.17 | -1.95 ± 0.24
43 | UCAUAGCAAUAUUACGGACU | -2.63 ± 0.18 | -3.18 ± 0.43
44 | UCAUAGCAAUAUUACGGGAC | -2.96 ± 0.27 | -3.97 ± 0.39
45 | UCAUAGCAAUAUUACGGGGU | -4.08 ± 0.27 | -1.67 ± 0.18
46 | UCAUAGCAAUAUUACGGUAU |  | -2.43 ± 0.28
47 | UCAUAGCAAUAUUACGUAAG | -1.66 ± 0.1 | -1.91 ± 0.15
48 | UCAUAGCAAUAUUACGUAGC | -4.12 ± 0.3 | -0.156 ± 0.15
49 | UCAUAGCAAUAUUACGUAGG | -1.08 ± 0.074 | -1.56 ± 0.096
50 | UCAUAGCAAUAUUACGUAUA | -2.54 ± 0.34 | -2.13 ± 0.28
51 | UCAUAGCAAUAUUACGUAUC | -4.44 ± 0.33 | -3.23 ± 0.24
52 | UCAUAGCAAUAUUACGUCCU | -3.7 ± 0.25 | -1.18 ± 0.14

Row | Sequence | self-splicing fitness (ln) (30 °C) | self-splicing fitness (ln) (37 °C)
53 | UCAUAGCAAUAUUACGUGCU | -2.6 ± 0.17 | -1.99 ± 0.11
54 | UCAUAGCAAUAUUACGUGGA | -2.02 ± 0.11 | -1.24 ± 0.093
55 | UCAUAGCAAUAUUACGUGUA | -2.35 ± 0.13 | -1.84 ± 0.14
56 | UCAUAGCAAUAUUACGUUGC | -3.86 ± 0.31 | -2.31 ± 0.32
57 | UCCAAGCAAUAUUACGACCC | -3.47 ± 0.22 | -1.98 ± 0.17
58 | UCCAAGCAAUAUUACGACGA | -0.735 ± 0.07 | 0.11 ± 0.096
59 | UCCAAGCAAUAUUACGACGU | -0.266 ± 0.068 | 0.0245 ± 0.073
60 | UCCAAGCAAUAUUACGAUCU | -3.08 ± 0.26 | -2.56 ± 0.22
61 | UCCAAGCAAUAUUACGAUGA | -0.0226 ± 0.05 | 0.466 ± 0.071
62 | UCCAAGCAAUAUUACGAUUG | -4.13 ± 0.33 | -1.78 ± 0.2
63 | UCCAAGCAAUAUUACGCAAG | -3.86 ± 0.32 | -2.51 ± 0.26
64 | UCCAAGCAAUAUUACGCACU | -2.28 ± 0.15 | -0.918 ± 0.14
65 | UCCAAGCAAUAUUACGCAUA | -1.07 ± 0.096 | -0.213 ± 0.087
66 | UCCAAGCAAUAUUACGCCGA | -0.365 ± 0.14 | 0.242 ± 0.13
67 | UCCAAGCAAUAUUACGCCGU | -0.285 ± 0.13 | -0.0434 ± 0.19
68 | UCCAAGCAAUAUUACGCGAA | -2.43 ± 0.13 | -0.748 ± 0.12
69 | UCCAAGCAAUAUUACGCGAC | -2.44 ± 0.23 | 
70 | UCCAAGCAAUAUUACGCUCA | -1.03 ± 0.11 | -0.393 ± 0.13
71 | UCCAAGCAAUAUUACGGAGG | -4.42 ± 0.27 | -2.81 ± 0.29
72 | UCCAAGCAAUAUUACGGCCA | -0.223 ± 0.11 | 0.127 ± 0.11
73 | UCCAAGCAAUAUUACGGGCA | -0.884 ± 0.06 | 0.244 ± 0.074
74 | UCCAAGCAAUAUUACGGGCC | -4.08 ± 0.32 | -1.72 ± 0.25
75 | UCCAAGCAAUAUUACGGUUA | -0.451 ± 0.066 | 0.0448 ± 0.068
76 | UCCAAGCAAUAUUACGUAAA | -1.12 ± 0.089 | -0.00199 ± 0.11
77 | UCCAAGCAAUAUUACGUACG | -3.53 ± 0.19 | -1.76 ± 0.16

From the supplement of paper PMC7877785
